According to patent US20230092081A1:

Biological target: S. ruber SSB cdel 111 C-terminal deletion mutant lacking the C-terminal 111 residues of the wildtype SSB (Salinibacter ruber)
Assay: size exclusion chromatography, 150 mM NaCl, self-association

oligomer mass as multiple of the monomer mass (times monomer size): 3.8
Substance: S. ruber SSB cdel 111 C-terminal deletion mutant lacking the C-terminal 111 residues of the wildtype SSB
